Reference: patent US11278600B2, “Human alpha-galactosidase variants” (Codexis, Inc., priority 2014, dated 2022)
Substitutions are numbered along the chain they refer to.

B1: 258 (protein)
chain: LDNGLARTPTMGWLHWERFMCNLDCQEEPDSCISEKLFMEMAELMVSEGWKDAGYEYLCIDDCWMAPQRDSEGRLQADPQRFPHGIRQLANYVHSKGLKFGIYADVGNKTCAGFPGSFGYYDIDAQTFADWGVDLLKFDGCYCDSLENLADGYKHMSLALNRTGRSIVYSCEWPLYMWPFQKPNYTEIRQYCNHWRNFADIDDSWASVKSILDWTSFNQETIVDVAGPGGWNDPDMLVIGNFGLSWNQQVTQMALWAIMAAPLFMSNDLRHISPQAKALLQDKDVIAINQDPLGKQGYQLRKGDNFEVWERPLSGLAWAVAIINRQEIGGPRSYTIAVASLGDGVACNPACFITQLLPVKRKLGFYEWTSRLRSHVNPTGTVLLQLENTMQMSLKDLL
modifications: Synthetic Polypeptide sequence of Variant No. 258 of mature Human GLA
B2: 261 (protein)
chain: B1 chain with V208I, T221K, N247D, K302Q, I322V
modifications: Synthetic Polypeptide sequence of Variant No. 261 of mature Human GLA
B3: 260 (protein)
chain: B1 chain with V208I, T221R, N247D, K302Q, I322M, D343K, F365L, R373K
modifications: Synthetic Polypeptide sequence of Variant No. 260 of mature Human GLA
B4: 269 (protein)
chain: B1 chain with L37I, F100L, V208I, T221K, N247D, K302Q, D343K, R373K, V376I
modifications: Synthetic Polypeptide sequence of Variant No. 269 of mature Human GLA
B5: 266 (protein)
chain: B1 chain with V208I, K302Q, D343E, F365L, R373K, V376I
modifications: Synthetic Polypeptide sequence of Variant No. 266 of mature Human GLA
B6: 264 (protein)
chain: B1 chain with V208I, T221K, N247D, I322V, R373K
modifications: Synthetic Polypeptide sequence of Variant No. 264 of mature Human GLA
B7: 268 (protein)
chain: B1 chain with V208I, T221R, K302Q, I322M, D343K, R373K
modifications: Synthetic Polypeptide sequence of Variant No. 268 of mature Human GLA
B8: 267 (protein)
chain: B1 chain with V208I, N247D, I322M, F365L, R373K, V376I
modifications: Synthetic Polypeptide sequence of Variant No. 267 of mature Human GLA
B9: 263 (protein)
chain: B1 chain with V208I, T221K, N247D, I322V, D343K
modifications: Synthetic Polypeptide sequence of Variant No. 263 of mature Human GLA
B10: 262 (protein)
chain: B1 chain with V208I, T221K, N247D, I322V, D343K, F365L, R373K
modifications: Synthetic Polypeptide sequence of Variant No. 262 of mature Human GLA
B11: 259 (protein)
chain: B1 chain with V208I, T221R, K302Q, I322V, D343K, F365L, R373K
modifications: Synthetic Polypeptide sequence of Variant No. 259 of mature Human GLA
B12: 265 (protein)
chain: B1 chain with V208I, T221K, K302Q, I322M, D343K, R373K
modifications: Synthetic Polypeptide sequence of Variant No. 265 of mature Human GLA

Tests used:
Format in all cases: biochemical
[1] = HTP-analysis of supernatants pretreated with bovine serum (MUGal hydrolysis); conditions: activity of the variant/activity of Rd2BB (SEQ ID NO: 10), yeast culture supernatant
How it was run: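 Yeast INVSc1 culture supernatants containing secreted GLA variants were mixed with bovine serum (20:80) and held 1 h at 37° C. Serum-treated samples then reacted with MUGal (4 mM stock) in citrate/McIlvaine buffer (pH 4.3/4.8) for 180 min at 37° C., were quenched with sodium carbonate, and read by fluorescence (Ex 355, Em 448 nm).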

[2] = HTP-analysis of supernatants pretreated with base (MUGal hydrolysis); conditions: challenge at pH 7.6; activity of the variant/activity of Rd2BB (SEQ ID NO: 10); yeast culture supernatant
How it was run: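 Fluorescence of released 4-MU (Ex 355 nm, Em 448 nm) after carbonate quench reports MUGal hydrolysis by GLA variants secreted from INVSc1 yeast. Before the acidic (pH 4.3-4.8) 30-180 min reaction at 37° C, supernatants had been pre-incubated at pH 7.0-9.7 for 1-18 h at 37° C.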

[3] = HTP-analysis of yeast culture supernatants, no challenge (MUGal hydrolysis); conditions: activity of the variant/activity of Rd2BB (SEQ ID NO: 10), yeast culture supernatant
How it was run: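 GLA variants expressed in yeast INVSc1, secreted into SD-Ura broth over 66-84 h at 30° C; clarified supernatants tested without challenge. Supernatant mixed with McIlvaine buffer pH 4.8 and 2 mM MUGal (citrate/KCl, pH 4.6), 37° C for 30-180 min, carbonate-quenched, fluorescence Ex 355/Em 448 nm.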

[4] = HTP-analysis of supernatants pretreated with acid (MUGal hydrolysis); conditions: challenge at pH 4.2; activity of the variant/activity of Rd2BB (SEQ ID NO: 10); yeast culture supernatant
How it was run: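 Fluorescence of MUGal hydrolysis (Ex. 355 nm, Em. 448 nm) is read after sodium carbonate quench. The enzyme source is INVSc1 yeast culture supernatant, first exposed to pH 3.3-4.3 McIlvaine buffer at 37° C. for 1-3 h, then reacted at pH 4.8 for 30-180 minutes.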

Molecule	Relative Activity of GLA Variants After Challenge with Serum [1]	Relative Activity of GLA Variants After Challenge at pH 7.6 [2]	Relative Activity of GLA Variants After No Challenge (NC) [3]	Relative Activity of GLA Variants After Challenge at pH 4.2 [4]
B1	++ (++ = 1.5 to 2.5 relative activity over Rd2BB (SEQ ID NO: 10))	+++ (+++ = >2.5 relative activity over Rd2BB (SEQ ID NO: 10))	+++ (+++ = >2.5 relative activity over Rd2BB (SEQ ID NO: 10))	++ (++ = 1.5 to 2.5 relative activity over Rd2BB (SEQ ID NO: 10))
B2	+ (+ = 0.5 to 1.5 relative activity over Rd2BB (SEQ ID NO: 10))	++ (++ = 1.5 to 2.5 relative activity over Rd2BB (SEQ ID NO: 10))	++ (++ = 1.5 to 2.5 relative activity over Rd2BB (SEQ ID NO: 10))	++ (++ = 1.5 to 2.5 relative activity over Rd2BB (SEQ ID NO: 10))
B3	+ (+ = 0.5 to 1.5 relative activity over Rd2BB (SEQ ID NO: 10))	+ (+ = 0.5 to 1.5 relative activity over Rd2BB (SEQ ID NO: 10))	+ (+ = 0.5 to 1.5 relative activity over Rd2BB (SEQ ID NO: 10))	+ (+ = 0.5 to 1.5 relative activity over Rd2BB (SEQ ID NO: 10))
B4	+ (+ = 0.5 to 1.5 relative activity over Rd2BB (SEQ ID NO: 10))	+ (+ = 0.5 to 1.5 relative activity over Rd2BB (SEQ ID NO: 10))	− (− = <0.5 relative activity over Rd2BB (SEQ ID NO: 10))	+ (+ = 0.5 to 1.5 relative activity over Rd2BB (SEQ ID NO: 10))
B5	++ (++ = 1.5 to 2.5 relative activity over Rd2BB (SEQ ID NO: 10))	+++ (+++ = >2.5 relative activity over Rd2BB (SEQ ID NO: 10))	++ (++ = 1.5 to 2.5 relative activity over Rd2BB (SEQ ID NO: 10))	++ (++ = 1.5 to 2.5 relative activity over Rd2BB (SEQ ID NO: 10))
B6	++ (++ = 1.5 to 2.5 relative activity over Rd2BB (SEQ ID NO: 10))	+++ (+++ = >2.5 relative activity over Rd2BB (SEQ ID NO: 10))	++ (++ = 1.5 to 2.5 relative activity over Rd2BB (SEQ ID NO: 10))	++ (++ = 1.5 to 2.5 relative activity over Rd2BB (SEQ ID NO: 10))
B7	+ (+ = 0.5 to 1.5 relative activity over Rd2BB (SEQ ID NO: 10))	+ (+ = 0.5 to 1.5 relative activity over Rd2BB (SEQ ID NO: 10))	+ (+ = 0.5 to 1.5 relative activity over Rd2BB (SEQ ID NO: 10))	+ (+ = 0.5 to 1.5 relative activity over Rd2BB (SEQ ID NO: 10))
B8	+++ (+++ = >2.5 relative activity over Rd2BB (SEQ ID NO: 10))	+++ (+++ = >2.5 relative activity over Rd2BB (SEQ ID NO: 10))	+++ (+++ = >2.5 relative activity over Rd2BB (SEQ ID NO: 10))	+++ (+++ = >2.5 relative activity over Rd2BB (SEQ ID NO: 10))
B9	+++ (+++ = >2.5 relative activity over Rd2BB (SEQ ID NO: 10))	++ (++ = 1.5 to 2.5 relative activity over Rd2BB (SEQ ID NO: 10))	+ (+ = 0.5 to 1.5 relative activity over Rd2BB (SEQ ID NO: 10))	++ (++ = 1.5 to 2.5 relative activity over Rd2BB (SEQ ID NO: 10))
B10	+++ (+++ = >2.5 relative activity over Rd2BB (SEQ ID NO: 10))	+++ (+++ = >2.5 relative activity over Rd2BB (SEQ ID NO: 10))	++ (++ = 1.5 to 2.5 relative activity over Rd2BB (SEQ ID NO: 10))	+++ (+++ = >2.5 relative activity over Rd2BB (SEQ ID NO: 10))
B11	+ (+ = 0.5 to 1.5 relative activity over Rd2BB (SEQ ID NO: 10))	+ (+ = 0.5 to 1.5 relative activity over Rd2BB (SEQ ID NO: 10))	+ (+ = 0.5 to 1.5 relative activity over Rd2BB (SEQ ID NO: 10))	+ (+ = 0.5 to 1.5 relative activity over Rd2BB (SEQ ID NO: 10))
B12	+ (+ = 0.5 to 1.5 relative activity over Rd2BB (SEQ ID NO: 10))	+ (+ = 0.5 to 1.5 relative activity over Rd2BB (SEQ ID NO: 10))	+ (+ = 0.5 to 1.5 relative activity over Rd2BB (SEQ ID NO: 10))	+ (+ = 0.5 to 1.5 relative activity over Rd2BB (SEQ ID NO: 10))
